The source of these data is patent publication US20140154243A1 (Amgen, published 2014).

The target in experiment [1] is T1, human hepatocyte growth factor (HGF) (human, UniProt P14210 32-728). Kind of experiment: cell-based or functional assay.
Experiment [2] addresses human HGF-avidin fusion protein with the point mutation hHGFC561R (chicken; human, UniProt P02701 25-152; P14210 32-728, limits assumed). Briefly: avidin fusion protein captured on biotin-coated beads, PE anti-human F(ab')2, FACS. Here is the method: (§1) These constructs were expressed and subjected to binding analysis as described in Examples 8C and 8D. […] The resulting bead-protein complexes were labeled by adding FITC labeled anti-avidin antibody (Vector Lab, Burlingame, Calif., Cat. # SP-2040). The presence of antibodies to HGF was determined by adding phycoerythrin (PE) labeled goat anti-human F(ab′)2 antibody (Southern Biotech Associates, Inc, Birmingham, Ala., Cat #2043-09). Those samples were then subjected to Fluorescence Activated Cell Sorter (FACS) analysis. Bead complexes labeled by FITC (which indicated the presence of avidin) and/or PE (which indicated the presence of antibody to HGF) were detected on a Becton Dickinson Bioscience FACScan (BD, Franklin Lakes, N.J.). In some cases, after expression normalization using FITC, single-color FACS analysis was performed following antibody binding by the PE label. This method increased the sensitivity of the assay and aided the measurement of binding with constructs that were not expressed at very high levels.

Experiment [3] concerns the target human HGF-avidin fusion protein with the point mutation hHGFG555E (chicken; human, UniProt P02701 25-152; P14210 32-728, limits assumed). The description is as above. The method, then:
as §1

Experiment [4] addresses human HGF-avidin fusion protein with the point mutation hHGFD592N (chicken; human, UniProt P02701 25-152; P14210 32-728, limits assumed). The experiment is described as above. Here is the method: as §1
Experiment [5] concerns the target human HGF-avidin fusion protein with the point mutation hHGFN601S (chicken; human, UniProt P02701 25-152; P14210 32-728, limits assumed). The description is as above. The method, then: as §1
Experiment [6] addresses human HGF-avidin fusion protein with the point mutation hHGFR647Q (chicken; human, UniProt P02701 25-152; P14210 32-728, limits assumed). Described as above. Here is the method:
as §1

For experiment [7], the target named is T2, human HGF-avidin fusion protein with a two amino acid insertion (mouse amino acids 540N and 541K) (chicken; human, UniProt P02701 25-152; P14210 32-728, limits assumed).
T2 construct: also called hHGF DK insertion
Described as above. Here is the method:
as §1

Experiment [8] deals with T1, human hepatocyte growth factor (HGF). Kind of experiment: BIAcore 3000, equilibrium/solution method: antibody (0.01-50 nM) incubated with human HGF (0.05 nM and 1 nM), free HGF measured on a chip carrying the same antibody. Here is the method:
That method was performed with a BIAcore®3000 (Biacore, Inc., Piscataway, N.J.) using PBS with 0.005% P20 surfactant (BIAcore, Inc. Piscataway, N.J.) as running buffer. The four antibodies to HGF were separately immobilized to research grade CM5 sensor chips (Biacore, Inc. Piscataway, N.J.) via primary amine groups using an Amine Coupling Kit (Biacore, Inc. Piscataway, N.J.) following the manufacturer's instructions.
In separate assays, each of the four antibodies to HGF, over a range of concentrations (from 0.01 nM to 50 nM) was separately incubated with each of two different concentrations (0.05 nM and 1 nM) of human HGF in PBS with 0.005% P-20 and 0.1 mg/mL BSA at room temperature for at least six hours. Each of those samples was then injected over a surface of a CM5 sensor chip onto which the same antibody to HGF had been immobilized. The binding signal obtained was proportional to the free HGF in solution. The dissociation equilibrium constant (KD) was obtained from nonlinear regression analysis of the competition curves using a dual-curve one-site homogeneous binding model (KinExA software, Sapidyne Instruments Inc., Boise Id.).
On the technique in general: Surface plasmon resonance follows binding to a sensor surface in real time, without labels.

The target is the same in experiment [9]. Briefly: neutralization ELISA (left table): inhibition of the binding of soluble Met (2 nM) to plate-coated HGF, detected with biotinylated anti-cMetR antibody and Eu-streptavidin; column head 'IC50 IP (nM)'. Here is the method:
A neutralization ELISA assay was developed to assess whether the antibodies discussed in Example 6 could interrupt Met-HGF binding. Delphia 96-well plates (Cat#: AAAND-0001, Wallac Inc., Gaithersburg, Md.) were coated with HGF by adding 100 μl of HGF at 6.25 μg/ml per well. The plates were incubated at 37° C. for 1 hour or at 4° C. overnight. The plates were then blocked with 5% BSA (Cat#50-61-00, KPL, Gaithersburg, Md.) in PBS containing 0.1% Tween 20 for 1 hour at room temperature with shaking.
Test samples were prepared by separately mixing soluble Met (2 nM, 0.256 μg/ml) with different concentrations of a particular antibody to HGF being tested. The concentrations tested were: 667 nM, 223 nM, 74.1 nM, 24.7 nM, 8.2 nM, 2.7 nM, 0.91 nM, 0.30 nM, 0.10 nM, and 0.034 nM. A volume of 100 μl of a test sample was added to each well of the plates. The plates were then incubated at 4° C. overnight and then washed 4 times with PBS containing 0.1% Tween 20. Next, 100 μl per well of Biotinylated anti-cMetR antibody (Cat#: BAF358, R&D Systems Inc., Minneapolis, Minn.) at 2 μg/ml, was added. […] The plates were then incubated for 2 hours with shaking, and were washed 4 times with PBS containing 0.1% Tween 20. Eu-streptavidin (1:1000 dilution in Assay buffer) (Cat#1244-360, Wallac Inc., Gaithersburg, Md.) was added and the plates were shaken at room temperature for 1 hour. The plates were then washed 4 times with PBS containing 0.1% Tween 20. Next, 100 μl of enhancement buffer (Wallac Inc., Cat#: 1244-105, Gaithersburg, Md.) was added. After at least for 5 minutes, the plates were read using Europium method on Victor 2 (1420 Multilabel Counter, Wallac Inc., Gaithersburg, Md.).
Percent inhibition of Met binding to HGF (i.e. neutralization) was calculated and IC₅₀ values were determined using the 4 parameter fit equation Excelfit, Version 2.0.6, (Microsoft Inc, Seattle, Wash.). In the presence of the antibodies to HGF discussed in Examples 6, Met binding to HGF was neutralized.

T1 sequence (P14210 32-728 limits assumed): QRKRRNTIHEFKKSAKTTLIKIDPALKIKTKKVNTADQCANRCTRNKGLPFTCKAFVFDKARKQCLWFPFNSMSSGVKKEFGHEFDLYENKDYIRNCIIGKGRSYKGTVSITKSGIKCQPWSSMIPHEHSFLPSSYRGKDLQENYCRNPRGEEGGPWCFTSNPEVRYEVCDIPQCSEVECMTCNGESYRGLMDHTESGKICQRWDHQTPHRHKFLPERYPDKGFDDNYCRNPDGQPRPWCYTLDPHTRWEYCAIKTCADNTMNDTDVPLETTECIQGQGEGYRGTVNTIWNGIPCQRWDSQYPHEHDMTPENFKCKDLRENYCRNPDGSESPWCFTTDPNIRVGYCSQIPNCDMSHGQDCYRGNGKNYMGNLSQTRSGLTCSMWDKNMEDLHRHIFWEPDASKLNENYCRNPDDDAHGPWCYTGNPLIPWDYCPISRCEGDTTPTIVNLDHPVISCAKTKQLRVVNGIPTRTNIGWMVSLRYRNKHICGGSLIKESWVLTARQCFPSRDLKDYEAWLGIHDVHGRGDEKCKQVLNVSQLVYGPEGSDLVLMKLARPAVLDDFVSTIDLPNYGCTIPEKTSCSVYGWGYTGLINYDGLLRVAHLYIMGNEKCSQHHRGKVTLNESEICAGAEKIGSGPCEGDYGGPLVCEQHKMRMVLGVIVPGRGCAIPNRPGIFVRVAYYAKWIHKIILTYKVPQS
Chain of human HGF-avidin fusion protein with the point mutation hHGFG555E (P02701 other isoform, or with tags, fused parts or gaps limits assumed): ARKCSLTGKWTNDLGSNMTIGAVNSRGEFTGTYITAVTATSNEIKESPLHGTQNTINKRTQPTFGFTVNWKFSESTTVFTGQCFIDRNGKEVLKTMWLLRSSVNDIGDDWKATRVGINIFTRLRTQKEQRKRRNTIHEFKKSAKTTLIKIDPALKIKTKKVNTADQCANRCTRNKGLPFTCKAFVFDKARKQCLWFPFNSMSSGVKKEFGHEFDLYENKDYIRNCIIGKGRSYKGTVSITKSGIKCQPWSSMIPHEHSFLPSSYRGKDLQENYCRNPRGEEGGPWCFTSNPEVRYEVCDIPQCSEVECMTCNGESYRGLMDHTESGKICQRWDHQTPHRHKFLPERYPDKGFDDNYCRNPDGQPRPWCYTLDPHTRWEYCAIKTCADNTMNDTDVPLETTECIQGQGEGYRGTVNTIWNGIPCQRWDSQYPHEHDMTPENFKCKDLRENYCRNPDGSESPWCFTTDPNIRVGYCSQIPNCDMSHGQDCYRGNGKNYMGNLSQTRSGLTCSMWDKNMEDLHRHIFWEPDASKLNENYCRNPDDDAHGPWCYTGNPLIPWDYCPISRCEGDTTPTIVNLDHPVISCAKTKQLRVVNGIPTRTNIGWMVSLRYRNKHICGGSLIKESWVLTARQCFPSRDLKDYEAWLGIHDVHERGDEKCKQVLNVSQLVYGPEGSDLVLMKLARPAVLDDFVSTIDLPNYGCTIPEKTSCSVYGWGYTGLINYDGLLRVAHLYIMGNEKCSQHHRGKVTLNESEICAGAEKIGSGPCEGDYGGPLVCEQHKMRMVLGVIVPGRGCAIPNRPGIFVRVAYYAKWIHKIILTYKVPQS
Chain of human HGF-avidin fusion protein with the point mutation hHGFR647Q (P02701 other isoform, or with tags, fused parts or gaps limits assumed): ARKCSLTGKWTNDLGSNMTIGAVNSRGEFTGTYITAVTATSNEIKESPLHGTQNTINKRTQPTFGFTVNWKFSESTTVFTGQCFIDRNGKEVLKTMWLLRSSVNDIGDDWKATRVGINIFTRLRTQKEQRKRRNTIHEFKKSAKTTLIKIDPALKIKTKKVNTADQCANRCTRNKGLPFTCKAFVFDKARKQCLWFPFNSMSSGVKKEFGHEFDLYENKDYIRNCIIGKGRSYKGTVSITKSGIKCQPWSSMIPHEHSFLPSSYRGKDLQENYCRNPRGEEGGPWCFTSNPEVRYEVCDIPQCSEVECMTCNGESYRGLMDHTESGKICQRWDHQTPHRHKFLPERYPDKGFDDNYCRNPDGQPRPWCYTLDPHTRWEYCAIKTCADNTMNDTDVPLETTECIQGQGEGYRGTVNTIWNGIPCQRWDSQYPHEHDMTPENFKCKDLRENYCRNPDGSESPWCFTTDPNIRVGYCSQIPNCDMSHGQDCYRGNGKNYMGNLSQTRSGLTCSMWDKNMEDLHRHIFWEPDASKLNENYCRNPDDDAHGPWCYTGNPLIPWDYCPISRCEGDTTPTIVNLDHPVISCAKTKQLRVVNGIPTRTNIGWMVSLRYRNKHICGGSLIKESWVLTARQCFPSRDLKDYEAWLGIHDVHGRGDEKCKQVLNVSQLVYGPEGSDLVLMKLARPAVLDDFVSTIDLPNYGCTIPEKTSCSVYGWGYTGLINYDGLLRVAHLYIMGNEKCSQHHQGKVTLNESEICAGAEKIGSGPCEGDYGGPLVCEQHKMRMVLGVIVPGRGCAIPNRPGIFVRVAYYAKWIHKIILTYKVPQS
Chain of human HGF-avidin fusion protein with the point mutation hHGFD592N (P02701 other isoform, or with tags, fused parts or gaps limits assumed): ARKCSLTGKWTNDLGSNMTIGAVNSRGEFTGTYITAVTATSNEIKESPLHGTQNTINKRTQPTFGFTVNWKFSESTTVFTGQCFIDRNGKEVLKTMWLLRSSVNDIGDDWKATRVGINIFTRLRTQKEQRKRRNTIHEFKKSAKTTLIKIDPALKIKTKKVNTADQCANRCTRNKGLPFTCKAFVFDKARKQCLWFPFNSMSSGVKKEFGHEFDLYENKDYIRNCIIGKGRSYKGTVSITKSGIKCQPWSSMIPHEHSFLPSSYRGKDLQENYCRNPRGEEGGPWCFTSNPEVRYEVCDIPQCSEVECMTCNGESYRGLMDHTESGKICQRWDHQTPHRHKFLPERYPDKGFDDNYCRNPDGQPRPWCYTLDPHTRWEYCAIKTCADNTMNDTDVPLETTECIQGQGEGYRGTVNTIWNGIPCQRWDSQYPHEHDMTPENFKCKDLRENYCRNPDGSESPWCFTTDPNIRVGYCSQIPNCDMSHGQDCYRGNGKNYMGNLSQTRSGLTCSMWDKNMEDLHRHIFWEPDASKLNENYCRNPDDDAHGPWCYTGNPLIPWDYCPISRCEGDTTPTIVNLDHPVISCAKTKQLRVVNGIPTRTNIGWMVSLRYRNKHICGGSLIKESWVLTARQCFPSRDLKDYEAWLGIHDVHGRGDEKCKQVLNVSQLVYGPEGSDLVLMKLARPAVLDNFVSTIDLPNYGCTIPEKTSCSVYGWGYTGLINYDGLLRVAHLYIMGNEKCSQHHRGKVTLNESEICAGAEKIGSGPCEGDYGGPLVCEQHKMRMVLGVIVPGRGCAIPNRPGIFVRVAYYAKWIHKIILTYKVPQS
Chain of human HGF-avidin fusion protein with the point mutation hHGFC561R (P02701 other isoform, or with tags, fused parts or gaps limits assumed): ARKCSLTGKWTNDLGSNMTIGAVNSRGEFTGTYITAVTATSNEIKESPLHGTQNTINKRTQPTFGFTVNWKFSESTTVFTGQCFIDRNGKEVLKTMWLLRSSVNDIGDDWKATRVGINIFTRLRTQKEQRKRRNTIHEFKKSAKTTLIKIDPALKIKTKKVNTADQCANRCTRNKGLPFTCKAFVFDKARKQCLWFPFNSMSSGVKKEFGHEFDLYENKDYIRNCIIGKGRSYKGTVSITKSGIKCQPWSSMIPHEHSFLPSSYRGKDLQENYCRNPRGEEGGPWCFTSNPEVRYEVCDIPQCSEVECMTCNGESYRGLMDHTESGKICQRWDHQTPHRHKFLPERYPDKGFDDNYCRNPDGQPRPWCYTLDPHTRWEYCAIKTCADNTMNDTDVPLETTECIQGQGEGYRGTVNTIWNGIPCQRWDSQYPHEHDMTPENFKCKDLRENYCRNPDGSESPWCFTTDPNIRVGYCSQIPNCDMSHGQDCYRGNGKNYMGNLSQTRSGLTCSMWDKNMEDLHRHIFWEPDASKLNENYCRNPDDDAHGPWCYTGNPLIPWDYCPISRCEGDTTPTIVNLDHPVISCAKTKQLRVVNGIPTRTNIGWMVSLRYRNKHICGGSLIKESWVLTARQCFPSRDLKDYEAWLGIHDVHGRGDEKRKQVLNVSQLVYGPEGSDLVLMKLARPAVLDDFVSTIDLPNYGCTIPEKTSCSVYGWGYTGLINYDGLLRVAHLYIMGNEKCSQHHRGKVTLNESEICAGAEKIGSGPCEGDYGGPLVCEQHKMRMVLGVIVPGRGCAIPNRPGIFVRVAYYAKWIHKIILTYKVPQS
Chain of human HGF-avidin fusion protein with the point mutation hHGFN601S (P02701 other isoform, or with tags, fused parts or gaps limits assumed): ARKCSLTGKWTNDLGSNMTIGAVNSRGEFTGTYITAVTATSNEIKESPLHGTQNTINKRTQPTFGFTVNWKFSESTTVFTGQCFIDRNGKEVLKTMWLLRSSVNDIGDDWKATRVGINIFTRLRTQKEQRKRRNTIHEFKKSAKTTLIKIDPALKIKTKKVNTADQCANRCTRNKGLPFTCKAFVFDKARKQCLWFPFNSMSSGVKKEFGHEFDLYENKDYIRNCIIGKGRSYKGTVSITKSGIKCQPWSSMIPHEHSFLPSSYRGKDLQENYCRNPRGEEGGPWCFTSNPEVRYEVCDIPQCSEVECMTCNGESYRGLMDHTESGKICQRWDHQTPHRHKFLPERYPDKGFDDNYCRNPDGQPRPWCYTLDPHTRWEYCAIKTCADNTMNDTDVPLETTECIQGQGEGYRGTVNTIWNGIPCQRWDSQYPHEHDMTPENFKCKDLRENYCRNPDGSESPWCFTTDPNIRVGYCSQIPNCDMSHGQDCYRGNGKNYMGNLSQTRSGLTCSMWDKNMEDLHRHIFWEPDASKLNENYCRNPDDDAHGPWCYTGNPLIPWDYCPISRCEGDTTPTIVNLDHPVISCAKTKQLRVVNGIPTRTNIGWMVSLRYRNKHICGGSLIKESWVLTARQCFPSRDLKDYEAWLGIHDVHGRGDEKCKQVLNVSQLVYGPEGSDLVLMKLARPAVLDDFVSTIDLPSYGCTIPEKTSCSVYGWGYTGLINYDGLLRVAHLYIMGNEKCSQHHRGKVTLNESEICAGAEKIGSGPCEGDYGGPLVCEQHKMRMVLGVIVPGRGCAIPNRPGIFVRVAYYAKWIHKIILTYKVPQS

B1: antibody 2.4.4 (antibody, human IgG2, kappa, V domains shown)
VH: QVQLKESGPGLVKPSQTLSLTCTVSGGSISSGVYYWSWIRQHPGKGLEWIGYFYYSGNTYHNPSLKSRVTISVDTSKNQFSLKLSSVTAADTAVYYCARDRSGYDHPDAFDIWGQGTMVTVSS
VL: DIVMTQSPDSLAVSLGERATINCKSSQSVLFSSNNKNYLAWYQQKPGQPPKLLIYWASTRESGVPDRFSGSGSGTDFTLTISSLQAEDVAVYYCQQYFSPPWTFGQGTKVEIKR
notes: also called FITC-labeled antibody 2.4.4
Regarding B1, the “IC50, inhibition of growth/survival of U-87 MG cells” value in experiment [1] is under 100 nM. Besides, the binding result in [2] is given as “no binding”; in experiment [3] it was “binds”; in [4] it was “binds”; in [5], “binds”; in experiment [6], “binds”; in [7], “no binding”. This molecule also gave a Kd in experiment [8] of under 0.01 nM. In experiment [9], the 50% inhibitory concentration (IC50) is 5.1 nM.

B2: antibody 2.12.1 (antibody, human IgG2, kappa, V domains shown)
VH: QVQLQESGPGLVKPSETLSLTCTVSGGSISIYYWSWIRQPPGKGLEWIGYVYYSGSTNYNPSLKSRVTISVDTSKNQFSLKLNSVTAADTAVYYCARGGYDFWSGYFDYWGQGTLVTVSS
VL: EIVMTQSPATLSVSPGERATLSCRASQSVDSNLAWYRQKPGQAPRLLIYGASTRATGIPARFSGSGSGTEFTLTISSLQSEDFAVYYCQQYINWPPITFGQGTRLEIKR
With B2, the “IC50, inhibition of growth/survival of U-87 MG cells” value in [1] was under 100 nM. Besides, the binding result in experiment [2] was “no binding”; in experiment [3], “no binding”; in [4], “binds”; in experiment [5], “binds”; in experiment [6] it was “binds”; in [7], “no binding”. Besides, binding in experiment [8] was put at a Kd of 0.054 nM. Moreover, in experiment [9], the IC50 came out at 2.1 nM.

What is called Kd is the free concentration of one partner at which half of the binding sites on the other are occupied at equilibrium, for simple one-to-one binding. Higher therefore signals a looser complex. In general, IC50 refers to the concentration that gives 50% inhibition. High values mean weaker potency in that assay, low ones greater potency in that assay.
